Source: patent US9988424 (DUKE UNIVERSITY, dated 2018)

Key:
Assay in all cases: ELISA, OD405 at 10 ug/ml
B.HXB/BAL gp140CFI = target: T1, B.HXB/BAL gp140CFI (HIV-1, UniProt P04578 33-680)
T1 construct: also called B.HxB/Ba gp140 CFI

AE.97CNG2XF gp140CF = target: T2, AE.97CNG2XF gp140CF (HIV-1)
T2 construct: also called E.97CNGX2F gp140CF

AE.A244 V1V2 Tags = AE.A244 V1V2 Tags (HIV-1)
D.9009SA V1/V2 tags = target: D.9009SA V1/V2 tags
C.1086 gp140 = target: T3, C.1086 gp140
T3 construct: also called C.1086gp140C

Con 6 gp120 = target: Con 6 gp120
C.1086 V1V2 Tags = C.1086 V1V2 Tags (HIV-1)
B.040 gp140C = target: B.040 gp140C
AE.A244 gp120 delta 11 = target: T4, AE.A244 gp120 delta 11 (HIV-1)
T4 construct: also called E.A244gp120Δ11; AE.A244 Δ11 gp120

B.9021 gp140C = B.9021 gp140C (HIV-1)
G.con gp140CF = target: G.con gp140CF
AE.con gp140CF = target: AE.con gp140CF
B.63521_V1/V2 tags = target: B.63521_V1/V2 tags
B.con gp140CF = target: B.con gp140CF
gp70 C.1086 V1/V2 = target: T5, gp70 C.1086 V1/V2 (HIV-1 V1V2 on murine leukemia virus gp70)
T5 construct: also called C.gp70 1086C V1V2; C.1086gp70V1V2
T5 chain: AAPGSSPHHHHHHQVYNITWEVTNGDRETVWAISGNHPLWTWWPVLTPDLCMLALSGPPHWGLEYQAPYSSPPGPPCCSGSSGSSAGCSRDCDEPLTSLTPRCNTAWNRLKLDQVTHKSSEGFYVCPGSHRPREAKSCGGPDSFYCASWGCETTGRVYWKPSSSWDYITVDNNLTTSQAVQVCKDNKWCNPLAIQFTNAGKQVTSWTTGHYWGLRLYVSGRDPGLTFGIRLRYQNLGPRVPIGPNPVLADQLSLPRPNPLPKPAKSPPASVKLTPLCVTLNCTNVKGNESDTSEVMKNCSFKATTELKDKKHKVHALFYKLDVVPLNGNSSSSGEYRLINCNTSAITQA

gp70 B.CaseA2 V1/V2 = target: T6, gp70 B.CaseA2 V1/V2 (HIV-1 V1V2 on murine leukemia virus gp70)
T6 construct: also called B.gp70CaseA2 V1/V2; gp70 B.CaseAV1V2
T6 chain: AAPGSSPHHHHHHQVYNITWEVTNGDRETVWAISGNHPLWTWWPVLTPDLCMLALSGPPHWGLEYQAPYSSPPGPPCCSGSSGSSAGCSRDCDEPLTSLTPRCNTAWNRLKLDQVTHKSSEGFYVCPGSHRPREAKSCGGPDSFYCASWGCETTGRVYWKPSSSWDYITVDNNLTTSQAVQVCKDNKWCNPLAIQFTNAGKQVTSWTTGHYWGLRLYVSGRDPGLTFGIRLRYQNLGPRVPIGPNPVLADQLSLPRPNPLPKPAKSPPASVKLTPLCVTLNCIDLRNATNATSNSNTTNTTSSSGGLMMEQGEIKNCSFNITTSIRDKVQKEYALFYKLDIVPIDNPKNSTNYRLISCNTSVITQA

SIV CPZ US-1 gp140CF = target: T7, SIV CPZ US-1 gp140CF (SIVcpz)
T7 construct: also called US-1 SIVCPZ gp140CF
T7 chain: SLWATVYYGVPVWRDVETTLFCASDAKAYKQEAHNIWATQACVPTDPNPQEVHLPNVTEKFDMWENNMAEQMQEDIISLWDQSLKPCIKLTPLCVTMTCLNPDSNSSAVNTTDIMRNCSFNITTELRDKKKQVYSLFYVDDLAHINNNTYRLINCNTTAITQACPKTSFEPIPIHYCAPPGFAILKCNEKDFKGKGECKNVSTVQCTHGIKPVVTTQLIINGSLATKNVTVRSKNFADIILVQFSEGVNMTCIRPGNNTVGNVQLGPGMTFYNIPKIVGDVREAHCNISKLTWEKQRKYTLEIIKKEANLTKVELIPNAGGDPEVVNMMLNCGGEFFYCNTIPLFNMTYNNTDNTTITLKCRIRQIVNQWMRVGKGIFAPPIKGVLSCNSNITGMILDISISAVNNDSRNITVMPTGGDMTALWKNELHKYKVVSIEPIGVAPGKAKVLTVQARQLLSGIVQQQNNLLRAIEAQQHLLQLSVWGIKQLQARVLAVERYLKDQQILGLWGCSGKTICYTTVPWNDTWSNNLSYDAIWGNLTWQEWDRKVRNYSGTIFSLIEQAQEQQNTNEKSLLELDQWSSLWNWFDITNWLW

A.9004SS V1/V2 tags = target: T8, A.9004SS V1/V2 tags
T8 V1V2 tags construct: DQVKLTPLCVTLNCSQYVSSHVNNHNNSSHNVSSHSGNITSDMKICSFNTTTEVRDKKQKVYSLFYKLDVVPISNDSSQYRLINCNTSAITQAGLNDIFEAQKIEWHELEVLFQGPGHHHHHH

B.Case A2 V1/V2 tags = target: B.Case A2 V1/V2 tags

Measured: binding result

B1: PG9 reverted unmutated ancestor antibody (antibody, V domains shown)
VH: QVQLVESGGGVVQPGRSLRLSCAASGFTFSSYGMHWVRQAPGKGLEWVAVISYDGSNKYYADSVKGRFTISRDNSKNTLYLQMNSLRAEDTAVYYCAREAGGPDYRNGYNYYDFWSGYYNYYYMDVWGKGTTVTVSS
VL: QSALTQPASVSGSPGQSITISCTGTSSDVGSYNLVSWYQQHPGKAPKLMIYEVSKRPSGVSNRFSGSKSGNTASLTISGLQAEDEADYYCCSLTSTRRWVFGGGTKLTVL
notes: also called PG9 RUA; PG9_RUA
no binding (tested: 10 ug/ml): all assays above
